± gives the uncertainty stated by the source.
Experiment: protein stability index of a GFP-peptide fusion (yeast GPS) (PSI 1-4); higher = more stable; sorted into four equal gates, so the index is relative within each strain
Summary of the method: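 Yeast carrying a pooled library were grown to mid-log phase in leucine-free medium. Each library plasmid expresses Cherry and has a tiled 17-residue yeast protein peptide fused downstream of GFP. Cells were sorted into four equal gates by GFP/Cherry ratio, and plasmids from each gate were PCR-amplified, Illumina-sequenced and assigned to strains by barcode. Summing, across gates, the read frequency times the gate number gave each peptide's protein stability index.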

| Sequence | protein stability index (doa10∆) | protein stability index (pdr5∆) | protein stability index (san1∆) | protein stability index (ubr1∆) |
| --- | --- | --- | --- | --- |
| LFPNELYNVMGINKKKL [RPC31] | 3.09 ± 0.27 | 2.87 ± 0.24 | 3.29 ± 0.082 | 3.5 ± 0.26 |
| LFSKNRNEVLESMDFLV [YCS4] | 2.08 ± 0.05 | 2.19 ± 0.066 | 2.43 ± 0.076 | 2.62 ± 0.052 |
| LGDMAVCFNNLVDENTD [YCS4] | 2.61 ± 0.068 | 2.8 ± 0.077 | 2.72 ± 0.076 | 2.85 ± 0.064 |
| LGFTPGELRSYLKGATG [FAS1] | 3.26 ± 0.15 | 3.66 ± 0.28 | 3.33 ± 0.17 | 3.41 ± 0.17 |
| LGIALIALGEDIGKEMS [RPN1] | 3.01 ± 0.081 | 3.01 ± 0.091 | 2.9 ± 0.1 | 3.02 ± 0.06 |
| LGINLVTADTVILFDSD [ISW2] | 2.53 ± 0.1 | 2.65 ± 0.086 | 2.51 ± 0.16 | 2.94 ± 0.06 |
| LGKKGVPYVVTHDGRTI [RPS4A] | 2.43 ± 0.068 | 2.52 ± 0.092 | 1.66 ± 0.098 | 2.13 ± 0.054 |
| LGLKFDDLIAEENPIMQ [QCR7] | 2.46 ± 0.28 | 2.21 ± 0.14 | 2.32 ± 0.16 | 1.81 ± 0.079 |
| LGNDIPHDLIIGTADIF [BRR2] | 2.6 ± 0.055 | 2.76 ± 0.068 | 2.84 ± 0.059 | 2.86 ± 0.047 |
| LGNVDAFQLADGIHYIL [PRP8] | 2.74 ± 0.15 | 2.65 ± 0.083 | 2.42 ± 0.1 | 1.91 ± 0.042 |
| LGPLSYQNMAFITAKDK [YJR042W/NUP85] | 2.43 ± 0.075 | 2.22 ± 0.088 | 2.26 ± 0.079 | 2.31 ± 0.058 |
| LGYARFILLDRLRQFNL [SMC4] | 2.36 ± 0.061 | 1.8 ± 0.065 | 1.75 ± 0.079 | 1.63 ± 0.061 |
| LGYPPISLVDDIINAVN [MTW1] | 2.46 ± 0.076 | 2.14 ± 0.065 | 2.44 ± 0.063 | 1.94 ± 0.069 |
| LHANGASFFFMVMFMHM [COB] | 1.75 ± 0.037 | 1.36 ± 0.028 | 1.37 ± 0.065 | 1.38 ± 0.036 |
| LHQYYGDDESKIPAVEY [FAS1] | – | 2.75 ± 0.21 | 2.96 ± 0.19 | – |
| LHVLPTLNSRALSGLYY [SNM1] | 2.45 ± 0.052 | 2.45 ± 0.05 | 2.12 ± 0.065 | 2.31 ± 0.042 |
| LHYIPKYNRYEKRHKNV [RPS11A] | 2.06 ± 0.063 | 1.74 ± 0.054 | 1.78 ± 0.089 | 2.26 ± 0.05 |
| LIAIVSKLLQTTLKLSP [NUT1] | 2.19 ± 0.042 | 1.39 ± 0.063 | 1.31 ± 0.11 | 1.21 ± 0.066 |
| LIEKVDDTAANNGDKDH [YIL149C/MLP2] | 3.09 ± 0.099 | 3.25 ± 0.084 | 2.99 ± 0.086 | 3.09 ± 0.065 |
| LIESLNTIRQNVTSSGD [YML103C/NUP188] | 1.13 ± 0.064 | 1.27 ± 0.096 | 1.17 ± 0.23 | 1.21 ± 0.081 |
| LIGRPPLLVPGMTPCTV [FAS1] | 1.32 ± 0.071 | 1.82 ± 0.079 | 1.81 ± 0.11 | 2.15 ± 0.06 |
| LIIQYPPNNARRTYNTL [ISW2] | 2.09 ± 0.037 | 2.49 ± 0.042 | 2.43 ± 0.052 | 2.33 ± 0.031 |
| LIPCKYLNRHADFFVRE [RPN7] | 2.62 ± 0.092 | 2.49 ± 0.12 | 2.18 ± 0.19 | 2.81 ± 0.11 |
| LIRFDESITKAMEFIFG [SMC2] | 2.45 ± 0.082 | 2.52 ± 0.17 | 2.35 ± 0.16 | – |
| LISGAGANPRVLSTFTA [RPN10] | 2.16 ± 0.11 | 2.04 ± 0.1 | 2.02 ± 0.2 | 2.17 ± 0.072 |
| LISIHSRENNSEYMVFG [YJL039C/NUP192] | 3.03 ± 0.11 | 2.25 ± 0.13 | 2.77 ± 0.1 | 3.15 ± 0.19 |
| LISSSLSNLSKDIKANL [YCS4] | 2.26 ± 0.057 | 1.72 ± 0.061 | 1.87 ± 0.1 | 2.35 ± 0.067 |

— the supplement of paper PMC9732359
